# In the nanobody polyreactivity screen of Harvey et al. (2022):
# Assay: yeast display, Sf9 membrane polyspecificity reagent, FACS + sequencing; frameworks hold sequencing errors
# Method in brief: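 Synthetic nanobody libraries on Saccharomyces cerevisiae BJ5465 were galactose-induced for 36–48 hours, stained 1 hour at 4 °C with 10% biotinylated, detergent-solubilized Sf9 membrane reagent and enriched on streptavidin microbeads. FACS then separated cells into low and high (top ~1%) gates by anti-HA (expression) and streptavidin (reagent binding) fluorescence. Genes were colony-PCR amplified, MiSeq 2 × 250 sequenced and CDR-length filtered. A clone's polyreactivity label is that of its gate of origin.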
row,Sequence,polyreactivity (PSR sort gate)
1,QVQLVESGGGLVQAGGSLRLSCAASGFTFYVYAMGWDRQAPGKEREFVAAISSSGGSTYYADSVKGRFTISRDNAKNTVYLQMNSLKPEDTAVYYCAALAYSTTRGRLDYWGQGTQVTVSS,high polyreactivity
2,QVQLVESGGGLVQAGGSLRLSCAASGFTFYVYAMGWYRQAPGKERELVAAISRGGSTYYADSVKGRFTISRDNAKNTVYLQMNSLKPEDTAVYYCNRVPYVSSSKVRYSNGFDYWGQGTQVTVSS,low polyreactivity
3,QVQLVESGGGLVQAGGSLRLSCAASGFTFYVYVMGWYRPAPGKERELVAGISRGGSTYYADSVKGRFTISRDTAKNTVYLQMNSLKPEDTAVYYCNARRAWSSTYGYWGQGTQVTVSS,high polyreactivity
4,QVQLVESGGGLVQAGGSLRLSCAASGFTFYWNTMGWYRPAPGKERELVAAISWSGGDTDYADSVKGRFTISRDNAKNTVYLQMNSLKPEDTAVYYCNSIYVSDRSSAVSFDYWGQGTQVNVSS,low polyreactivity
5,QVQLVESGGGLVQAGGSLRLSCAASGFTFYWYAMGWYRQAPGKEREFVAAIDQSGGSTYYADSVKGRFTISRDNAKNTVYLQMNSLKPEDTAVYYCAAAYLRYVSTQYHYDYWGQGTQVTVSS,low polyreactivity
6,QVQLVESGGGLVQAGGSLRLSCAASGFTFYWYAMGWYRQAPGKEREFVAAIDQSGGSTYYADSVKGRFTISRDNAKNTVYLQMNSLKPEDTAVYYCAARYILWDGDSWTEFDYWGQGTQVTVSS,low polyreactivity
7,QVQLVESGGGLVQAGGSLRLSCAASGFTFYWYAMGWYRQAPGKERELVAAISRGGSTNYADSVKGRFTISRDNAKNTVYLQMNSLKPEDTAVYYCARDNPYRWFYRYVGEGDYWGQGTQVTVSS,low polyreactivity
8,QVQLVESGGGLVQAGGSLRLSCAASGFTFYWYAMGWYRQAPGKERELVAAITSGGGTTYYADSVKGRFTISRDNAKNTVYLQMNSLKPEDTAVYYCAADSYTYPWIERDYWGQGTQVTVSS,high polyreactivity
9,QVQLVESGGGLVQAGGSLRLSCAASGFTFYYNAMGWYRQAPGKERELVAAISASGGRTYYADSVKGRFTISRDNAKNTVYLQINSLKPEDTAVYYCAYRVYPHYGWYDYWGQGTQVTVSS,high polyreactivity
10,QVQLVESGGGLVQAGGSLRLSCAASGFTFYYNAMGWYRQAPGKERELVAAISSRGTSTYYADSVKGRFTISRDNAKNTVYLQMNSLKPEDTAVYYCNTDRIGRYYQSYGGGHMDYWGQGTQVTVSS,high polyreactivity
11,QVQLVESGGGLVQAGGSLRLSCAASGFTFYYNAMGWYRQAPGKERELVAAISTGGSTYYADSVKGRFTISRDNAKNTVYLQMNSLKPEDTAVYYCAAKTYGRRWSYYYWGQGTQVTVSS,high polyreactivity
12,QVQLVESGGGLVQAGGSLRLSCAASGFTFYYNAMGWYRQAPGKERELVAAISTRGGNTYYADSVKGRFTISRDNAKNTVYLQMNSLKPEDTAVYYCARKIRREGRYDYWGQGTQVTVSS,high polyreactivity
13,QVQLVESGGGLVQAGGSLRLSCAASGFTFYYNAMGWYRQAPGKERELVAAITWDGGRTYYADSVKGRYTISRDNAKNTVYLQMNSLKTVDTAVYYCAAVEYSEHWDGYSWGEYYYWGQGTQVTVSS,high polyreactivity
14,QVQLVESGGGLVQAGGSLRLSCAASGFTFYYNAMGWYRQAPGKERELVAAMSGRGGSTHYADSVKGRFTISRDNAKNTVYLQMNSLKPEDTAVYYCNKVVRGSPEFDYWGQGTQVTVSS,high polyreactivity
15,QVQLVESGGGLVQAGGSLRLSCAASGFTFYYNARGWYRQAPGKERELVASITRSGGRTYYADSVKGRFTISRDNAKNTVYLQMNSLKPEDTAVYYCAAANHKGSRMDYWGQGTQVTVSS,high polyreactivity
16,QVQLVESGGGLVQAGGSLRLSCAASGFTFYYYAMGGYSQAPGKERELVAAISSTGGSTYYADSVKGRFTISRDNAKNTVYLQMNSLKPEDTAVYYCNAAGYRYPGDYDFWGQGTQVTVSS,high polyreactivity
17,QVQLVESGGGLVQAGGSLRLSCAASGFTFYYYAMGWYRQAPGKERELVAAIDTSDGSTYYADSVKGRFTISRDNAKNTVYLQMNSLKPEDTAVYYCAAEVDCVPFLLDYWGQGTQVTVSS,low polyreactivity
18,QVQLVESGGGLVQAGGSLRLSCAASGFTFYYYAMGWYRQAPGKERELVAAISRSGGSTYYADSVKGRFTISRDNAKNTVYLQMNSLKQEDTAVYYCAARRLVGAERPGYDDWGQGTQVTVSS,high polyreactivity
19,QVQLVESGGGLVQAGGSLRLSCAASGFTFYYYAMGWYRQAPGKERELVAAISSGGSTNYADSVKGRFTISRDNAKNTVYLPRNSLKPEDTAVYYCAAPQPYWWAYRYDYWGQGTQVTVSS,low polyreactivity
20,QVQLVESGGGLVQAGGSLRLSCAASGFTFYYYAMGWYRQAPGKERELVAGISKSGGITYYADSVKGRFTISLDNAKNTVYLQMNSLKPEDTAVYYCAAAEWYQFFIYRYTYEYWGQGTQVTVSS,low polyreactivity

row,Sequence,polyreactivity (PSR sort gate)
1,QVQLVESGGGLVQAGGSLRLSCAASGFTFYYYAMGWYRQAPGKERELVASISWRGGSTYYADSVKGRFTISRDNAKNTVYLQMNSLKPEDTAVFYCAAQKRGSPGYRRDYWGQGTQVTVSS,high polyreactivity
2,QVQLVESGGGLVQAGGSLRLSCAASGFTFYYYAMGWYRQAPGKERELVATIRWSGGSTYYADSVKGRFTISRDNAKNTVYLQMNSLKPEDTAVYYCNATPPQYVKYPSYKYDYWGQGTQVTVSS,low polyreactivity
3,QVQLVESGGGLVQAGGSLRLSCAASGFTIFGYAMGWYRQAPGKERELVAAISTIDGDTYYADSVKGRFTISRDNAKNTVYLQMNSLKPEDTAVYYSAADDYIDGDDYWGQGTQVTVSS,low polyreactivity
4,QVQLVESGGGLVQAGGSLRLSCAASGFTIHGNAMGWYRPAPGKERELVAGISSSGASTYYADSVKGRFTISRDNAKNTVFLQMNSLKPEDTAVYYCAVRYYGRYLRYNYWGQGTQVTVSS,high polyreactivity
5,QVQLVESGGGLVQAGGSLRLSCAASGFTIIIYAMGWYRQAPGKERQLVAAINTSGTRTYYADSVKGRFTISRDNAKNTVYLQMNSLKPEDTAVYYCAARSGYKGEHGDRDDYWGQGTQVTVSS,high polyreactivity
6,QVQLVESGGGLVQAGGSLRLSCAASGFTIIRYAMGWYRQAPGKERDLVAAITTSGSGTYYAHSVKGRFTISRDNAKNTVYLQMNSLKPEDTAVDYCATDYRYRSYSRGAHDYWGQGTQVTVSS,low polyreactivity
7,QVQLVESGGGLVQAGGSLRLSCAASGFTIQFYTMGWYRQAPGKERELVAAISYNGDSTYYADSVKGRFTISRDNAKNTVYLQMNSLKPEDTAVYYCNTDLGTIYYYGYDYWGQGTQVTVSS,high polyreactivity
8,QVQLVESGGGLVQAGGSLRLSCAASGFTIQRYAMGWSRQAPGKERELVAAITSGGSTYYADSVKGRFTISRDNAKNTVYLQMNSLKPEDTAVYYCAAYYRGRAYISYGYWGQGTQVTVSS,high polyreactivity
9,QVQLVESGGGLVQAGGSLRLSCAASGFTIRQYAMGWYRQAPGKERELVAAISGRGGTTYYADSVKGRFTISRDNAKNTVYLQMNSLKPEDTAVYYCAARTFDRGKIPPPYDYWGQGTQVTVSS,high polyreactivity
10,QVQLVESGGGLVQAGGSLRLSCAASGFTIRRYAMGWYRQAPGKERALVAAITTGGSTYYADSVKGRFTISRDNAKNTVYLQMYSLKPEDTAVYYCATDTYPYPLYYSPGAYGYWGQGTQVTVSS,high polyreactivity
11,QVQLVESGGGLVQAGGSLRLSCAASGFTIRRYAMGWYRQAPGKESELVAAITTGGSTYYADSVKGRFTISRDNAKNTVYLQMNSLKPEDTAVYYCATDTYPYPLYYSPGAYGYWGQGTQVTVSS,high polyreactivity
12,QVQLVESGGGLVQAGGSLRLSCAASGFTIRSYVMGWYRQAPGKEREFVAAISYRGGGTNYADSVKGRFTISRDNAKNTVYLQMNSLKPEDSAVYYCNAYIVSNEGDYWGQGTQVTVSS,high polyreactivity
13,QVQLVESGGGLVQAGGSLRLSCAASGFTIRSYVMGWYRQAPGKERELVAAIRRSGGSTYYADSVKGRFTNSRDNAKNTVYLQMNSLKPEDTAVYYCNAPHHRYDWGQGTQVTVSS,high polyreactivity
14,QVQLVESGGGLVQAGGSLRLSCAASGFTISPYAMGWYRQAPGKERELVAVISKSSTRTYYADSVKGRFTISRDTAKNTVYLQMNSLKPEDTAVYYCNAGWNFVSGYYYWGQGTQVTVSS,high polyreactivity
15,QVQLVESGGGLVQAGGSLRLSCAASGFTISSYVMGWYRQAAGKEREVVAAISSSGARTYYADSVKGRFTISRDNAKNTVYLQMNSLKPEDTAVYYCAADNSPRPYDYWGQGTQVTVSS,high polyreactivity
16,QVQLVESGGGLVQAGGSLRLSCAASGFTITKYAMGWYRQAPGKERELVAAISSSGYSTYYADSVKGRFTISRDNAKNTVYFQMNSLKPEDTAVYYCAARGYYSSGVDYCGQGTQVTVSS,high polyreactivity
17,QVQLVESGGGLVQAGGSLRLSCAASGFTIVPYAMGWYRQAPGKERELVAAISRRGSRTYYADSVKGRFTISRDNAKNTVYLQMNSLKPEDTAVYYCAAKLSAVKAAYDYWGQGTQVTVSS,high polyreactivity
18,QVQLVESGGGLVQAGGSLRLSCAASGFTIVYYSMGWYRQAPGKERELVATISSGGGTNYADSVKGRFTISRDNAKNTVYLQMNSLTPEDTAVYYCAAEYYTGYFKYDYWGQGTQVTVSS,high polyreactivity
19,QVQLVESGGGLVQAGGSLRLSCAASGFTIWQNAMGWYRQAPGKERELVAGIRLSGGSTYADSVKGRFTISRDNAKNTVYLQMNSLKPEDTAVYYCAARIAGYYRYRYSYGYWGQGTQVTVSS,high polyreactivity
20,QVQLVESGGGLVQAGGSLRLSCAASGFTIWRNDMGWYRQAPGKERELVAVISTAGRTYYADSVKGRFTISRDNAKITVYLQMNSLKPEDTAVYYCAKRSYSKDQPRYGYWGQGTQVTVSS,low polyreactivity
